The text below walks through data of US20090117104A1 (published 2009).

The chains are these.
T1: mutated human GLP-2R (human, UniProt O95838 1-553)
T1 chain: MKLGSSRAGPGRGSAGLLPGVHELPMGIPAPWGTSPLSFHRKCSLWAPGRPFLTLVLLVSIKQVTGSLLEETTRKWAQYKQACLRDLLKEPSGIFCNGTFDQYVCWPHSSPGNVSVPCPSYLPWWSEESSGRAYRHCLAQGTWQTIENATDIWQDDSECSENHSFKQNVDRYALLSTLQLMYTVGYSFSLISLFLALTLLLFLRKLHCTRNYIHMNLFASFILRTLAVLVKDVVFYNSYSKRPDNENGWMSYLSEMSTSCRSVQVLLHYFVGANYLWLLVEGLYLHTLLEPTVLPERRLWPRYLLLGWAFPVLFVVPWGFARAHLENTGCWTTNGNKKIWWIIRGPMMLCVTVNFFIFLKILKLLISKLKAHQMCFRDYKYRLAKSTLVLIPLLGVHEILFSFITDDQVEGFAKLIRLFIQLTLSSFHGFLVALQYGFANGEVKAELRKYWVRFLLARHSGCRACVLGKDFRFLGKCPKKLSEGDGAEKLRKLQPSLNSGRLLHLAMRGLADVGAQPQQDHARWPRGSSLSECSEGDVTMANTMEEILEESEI

B1: A2G GLP-2 mimetibody linker length variant, SEQ ID NO: 8 (Fc fusion, not shown: a dimerising Fc or GST)
chain: HGDGSFSDEMNTILDNLAARDFINWLIQTKITDGGGGSGGGGSGGGGSCPPCP
modifications: cysteine pairing not given here; also: mimetibody: followed by CH2-CH3 domains not given here
B2: GLP-2 mimetibody Pro substitution variant, SEQ ID NO: 42 (Fc fusion, not shown: a dimerising Fc or GST)
chain: HGDGSFSDEMNTILDNLAARDFINWLIQTKITDGSGGGSGALVPVSSESKYGPPCPPCP
B3: GLP-2 mimetibody Pro substitution variant, SEQ ID NO: 44 (Fc fusion, not shown: a dimerising Fc or GST)
chain: HGDGSFSDEMNTILDNLAARDFINWLIQTKITDGSGGGSGALVAVSPESKYGPPCPPCP
B4: GLP-2 mimetibody Pro substitution variant, SEQ ID NO: 45 (Fc fusion, not shown: a dimerising Fc or GST)
chain: HGDGSFSDEMNTILDNLAARDFINWLIQTKITDGSGGGSGALVAVSSESKPGPPCPPCP
B5: GLP-2 mimetibody Pro substitution variant, SEQ ID NO: 43 (Fc fusion, not shown: a dimerising Fc or GST)
chain: HGDGSFSDEMNTILDNLAARDFINWLIQTKITDGSGGGSGALVAVPSESKYGPPCPPCP
B6: A2G GLP-2 mimetibody linker length variant, SEQ ID NO: 7 (Fc fusion, not shown: a dimerising Fc or GST)
chain: HGDGSFSDEMNTILDNLAARDFINWLIQTKITDGGGGSGGGGSCPPCP
modifications: cysteine pairing not given here; also: mimetibody: followed by CH2-CH3 domains not given here
B7: A2G GLP-2 mimetibody linker length variant, SEQ ID NO: 6 (Fc fusion, not shown: a dimerising Fc or GST)
chain: HGDGSFSDEMNTILDNLAARDFINWLIQTKITDGGGGSCPPCP
modifications: cysteine pairing not given here; also: mimetibody: followed by CH2-CH3 domains not given here
B8: A2G GLP-2 mimetibody linker length variant, SEQ ID NO: 9 (Fc fusion, not shown: a dimerising Fc or GST)
chain: HGDGSFSDEMNTILDNLAARDFINWLIQTKITDGGGGSGGGGSGGGGSGGGGSCPPCP
modifications: cysteine pairing not given here; also: mimetibody: followed by CH2-CH3 domains not given here
B9: A2G GLP-2 mimetibody linker length variant, SEQ ID NO: 10 (Fc fusion, not shown: a dimerising Fc or GST)
chain: HGDGSFSDEMNTILDNLAARDFINWLIQTKITDGGGGSGGGGSGGGGSGGGGSGGGGSCPPCP
B10: A2S GLP-2 IgG4 mimetibody (Fc fusion)
chain: HSDGSFSDEMNTILDNLAARDFINWLIQTKITDGSGGGSGTLVTVSSESKYGPPCPPCPAPEAAGGPSVFLFPPKPDTLMISRTPEVTCVVVDVSQEDPEVQFNWYVDGVEVHNAKTKPREEQFNSTYRVVSVLTVLHQDWLNGKEYKCKVSNKGLPSSIEKTISKAKGQPREPQVYTLPPSQEEMTKNQVSLTCLVKGFYPSDIAVEWESNGQPENNYKTTPPVLDSDGSFFLYSRLTVDKSRWQEGNVFSCSVMHEALHNHYTQKSLSLSLGK

Ends that are not written are not given here.

The first assay addresses mutated human GLP-2R (human) (UniProt O95838). The assay is described as follows: cell-based or functional assay.
B1 had an EC50 (nM), cAMP expression assay of 12.7 nM.
The same measure, in the same setting: the figure for B2 is 3.6 nM; for B3 it is 7.7 nM.
The same measure, in the same setting: the figure for B4 is 5.8 nM; for B5 it is 4.8 nM.
On the same count and under the same terms, the figure for B6 is 22.5 nM; for B7 it is 40 nM; for B8 it is 4.6 nM.
The molecule B9 yielded an EC50 (nM), cAMP expression assay of 2.1 nM.

The target of a further assay is T1, mutated human GLP-2R. The assay is described as follows: cell-based or functional assay.
On to B10, for which the “potency in the cAMP expression assay relative to the corresponding peptide” value was around 4 fold less.
HGDGSFSDEMNTILDGQAARDFINWLIQTKITD [GLP-2(A2G, N16G, L17Q)]: the “activity in the cAMP expression assay relative to wild type GLP-2” value is 2 fold less.
Same read-out and setting: the figure for HGDGSFSDEMNTILDNQAARDFINWLIQTKITD [GLP-2(A2G, L17Q)] is 3 fold less.
